The target of experiment [1] is human CD45R0 antigen (splice variant/isoform CD45R0 of CD45 antigen, PTPRC), cell-bound (human) (UniProt P08575). Kind of experiment: flow cytometry on human PBMC, from median fluorescence at 5 µg/mL; muCD45R0 set to 100%.
The target is the same in experiment [2]. Nature of the experiment: flow cytometry, indirect staining of human PBMC, Fab 1-10 µg/mL + anti-His-PE. In general terms: In flow cytometry, cells or beads pass a laser one at a time.
For experiment [3] the target is unchanged. Nature of the experiment: flow cytometry on human T cells, from median fluorescence at 5 µg/mL; muCD45R0 set to 100%.
For experiment [4] the target is unchanged. Nature of the experiment: flow cytometry, biotinylated Fab 5 µg/mL on human CD3+ CD45RA- T cells, donor 2 (text: anti-Biotin-PE; table head: anti-HIS-PE).
The target is the same in experiment [5]. Nature of the experiment: flow cytometry on human PBMC, from max. MFI; muCD45R0 set to 100%.
For experiment [6] the target is unchanged. Nature of the experiment: flow cytometry, human PBMC gated on living CD45RA-negative WBC, Fab 5 µg/mL + anti-His-PE.
Experiment [7] has the same target. Nature of the experiment: flow cytometry, biotinylated Fab 5 µg/mL on human CD3+ CD45RA- T cells, donor 1 (text: anti-Biotin-PE; table head: anti-HIS-PE).
Experiment [8] shares this target. Nature of the experiment: flow cytometry on human PBMC, from median fluorescence at 5 µg/mL; relative to muCD45R0 = 100%.
For experiment [9] the target is unchanged. Nature of the experiment: flow cytometry on human PBMC, from max. MFI; relative to muCD45R0 = 100%.

B1: Fab variant "muCD45R0" (chimeric Fab: variable regions of parental murine CD45R0 antibody clone UCHL1, human constant regions) (Fab, V domains shown, not shown: small tags and cut ends)
VH: QITLKESGPGILQPSQTLSLTCSFSGFSLTTYGIGVGWIRQPPGKGLEWLTHIWWNDNKYYNTALRSRLTISKDSSNNQVLLKIANVDTADTATYYCLYGYTYWGQGTLVTVSA
VL: DVVMTQTPLSLPVSLGDQASISCRSSQSLLYSNGNTYLHWYLQKPGQSPKLLIYKLSNRFSGVPDRFSGSGSGTDFTLKISRVEAEDLGVYFCSQSTHVPWTFGGGTKLEIKR
With B1, the relative affinity (%) in [1], in experiment [3] and in [5] was 100% throughout. Also, in [2], the max. mean fluorescence (anti-HIS-PE) is 37. Besides, in [4], the median fluorescence, donor 2 came out at 21. Further, in [6], the median fluorescence (anti-HIS PE) was 26. In experiment [7], the median fluorescence, donor 1 was found to be 8.

B2: Fab variant "huCD45R0_v3" (humanized, germline IGHV2-5*01 / IGKV2-30*01 framework with backmutations) (Fab, V domains shown, not shown: small tags and cut ends)
VH: QITLKESGPTLVKPTQTLTLTCTFSGFSLTTYGIGVGWIRQPPGKALEWLTHIWWNDNKYYSPSLKSRLTITKDSSKNQVVLTMTNMDPVDTATYYCLYGYTYWGQGTLVTVSA
VL: DVVMTQTPLSLPVTLGQPASISCRSSQSLLYSNGNTYLHWYQQRPGQSPRLLIYKLSNRFSGVPDRFSGSGSGTDFTLKISRVEAEDVGVYYCSQSTHVPWTFGGGTKLEIKR
B2 gave a relative affinity (%) in experiment [8] of 165%. For the same molecule, the median fluorescence, donor 2 in [4] stood at 24. Also, the median fluorescence (anti-HIS PE) in [6] was 43. In addition, the median fluorescence, donor 1 in experiment [7] was 9.5.

B3: Fab variant "huCD45R0_v1" (humanized, 4D5 framework with backmutations) (Fab, V domains shown, not shown: small tags and cut ends)
VH: EVQLVESGGGLVQPGGSLRLSCAFSGFSLTTYGIGVGWIRQAPGKGLEWLTHIWWNDNKYYADSVKGRFTISKDSSKNTVYLQMNSLRAEDTAVYYCLYGYTYWGQGTLVTVSS
VL: DIQMTQSPSSLSASVGDRVTITCRSSQSLLYSNGNTYLHWYQQKPGKAPKLLIYKLSNRFSGVPSRFSGSRSGTDFTLTISSLQPEDFATYYCSQSTHVPWTFGQGTKVEIKR
Regarding B3, the relative affinity (%) in experiment [9] was determined as 8%. In experiment [2], the max. mean fluorescence (anti-HIS-PE) came out at 3.

B4: Fab variant "huCD45R0_v2" (humanized, 4D5 framework with extended backmutations) (Fab, V domains shown, not shown: small tags and cut ends)
VH: QIQLVESGGGLVQPGGSLRLSCAFSGFSLTTYGIGVGWIRQAPGKGLEWLTHIWWNDNKYYADSVRGRFTISKDSSKNTVYLQMNSLRAEDTAVYYCLYGYTYWGQGTLVTVSS
VL: DVVMTQTPSSLSASVGDRVTISCRSSQSLLYSNGNTYLHWYQQKPGKAPKLLIYKLSNRFSGVPDRFSGSGSGTDFTLTISSLQPEDFATYYCSQSTHVPWTFGQGTKVEIKR
In the case of B4, in [8], the relative affinity (%) is 31%. Further, the median fluorescence (anti-HIS PE) in experiment [6] turned out to be 8.

The values above are taken from patent US20160152733A1.
